Assay results published in the supplement of paper PMC10567573.

B1: INTS4 (parent)
chain: TIIEPAGESDNPLRFTSGLVVALD
B2: ACBD3 (parent)
chain: YVASHKIEKEEQEKKRKEEEERRR

Variants of: B1
Experiment: protein stability index of a GFP-peptide fusion (GPS, HEK-293T) (PSI 1-6); higher = more stable
Details: c terminus: a fixed tail appended
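Note: lentivirally expressed fusions sorted by FACS into six bins by GFP to DsRed ratio, PSI derived from sequencing read proportions per bin multiplied by bin number.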

Protein stability index, by site and new letter:
D10: W 2.85, V 2, H 2.75, K 2.32
P12: G 2.68, T 2.93, R 2.65
V21: Q 3.71, D 4.92, N 3.63, A 3.36, R 3.67
G18: F 1.41
I3: P 3.42, L 2.76, C 3.2
V20: R 3.38, E 4.03
T16: G 3.15, D 3.92, N 3.39
I2: L 3.48, S 3.48, P 3.9
N11: D 3.33, A 3.13, S 2.6, F 1.66, H 2.47
T1: V 2.23, S 3.41
S9: T 2.9, Q 2.77, P 3.25
L23: K 4.07, V 3.1, Q 4.56
E4: H 2.55, I 1.72, Y 1.51
A6: H 2.75, G 2.94
E8: V 2.66, L 2.37, H 2.23
G7: D 3.74
A22: K 3.21
P5: M 1.76, D 3.36, V 2.54, K 2.79
S17: Y 2.15, E 3.73, M 1.67, W 2.14, C 1.52
F15: D 5.04, V 3.97, Q 3.99, M 3.44, L 3.21, A 4.29
L19: N 4.11, C 3.95
L13: R 3.65
R14: G 3.25

Variants of: B2
Experiment: as above
Details: c terminus: a fixed tail appended

Protein stability index: each site, then its substitutions
E13: S 3.36, D 2.9, I 2.22, N 2.52, P 2.02, L 2.27, H 2.25, Q 2, K 1.73, C 2.66, Y 2.41, G 2.15, F 2.39, W 2.81, V 2.93, M 2.04, T 2.33
K14: H 2.22, G 2.79, P 2.49, M 2.62, I 3.21, V 3.09, D 3.27, T 2.44, N 2.99, Y 2.27, S 2.74, Q 2.95, C 2.67, W 2.69, L 3
V2: N 5.04, F 5.16, W 4.93, K 5.05, S 5.25, Y 4.75, Q 4.57, H 4.14, E 5.85, R 5.49, M 5.36, C 4.4, P 5.11, L 5.22, I 4.51, T 5.24, G 5.36, D 5.36, A 4.73
Q12: K 2.12, T 2.52, R 2.26, D 3.76, I 3.33, E 3.63, Y 2.67, F 1.96, S 1.82, V 2.02, P 2.31, G 2.88, N 2.18, H 2.27, C 2.92, W 1.93, L 2.78, A 3.33
H5: Y 2.42, M 2.5, W 2, K 2.61, F 2.24, N 2.4, D 4.25, E 4.24, L 2.82, T 3, G 1.92, P 3.08, A 3.1, V 3.05, I 3.02, Q 2.7, S 3.07, R 2.46
A3: Y 2.13, R 2.01, Q 3.36, G 2.33, F 3.72, M 3.14, T 2.98, H 2.15, V 3.36, N 2.39, W 2.85, L 3.09, S 3.04, K 2.95, I 2.61, C 2.5, P 1.47, D 3.91, E 2.84
Y1: L 5.56, K 5.87, T 5.43, I 5, H 5.57, W 5.65, G 4.73, R 5.49, F 2.11, Q 5.5, S 5.5, P 5.43, A 5.78, N 5.77, E 5.83, D 5.55, V 5.68, C 4.93, M 5.6
K15: E 3.07, H 3.06, I 2.39, N 2.62, Y 2.16, A 3.27, C 2.09, S 2.79, D 2.73, R 2.69, V 2.74, M 2.6, F 2.06, L 2.2, W 3.36, Q 3.15, P 2.4, G 2.71
E11: T 4.28, Y 2.37, H 3.12, I 2.24, Q 2.79, P 1.76, G 2.34, D 2.75, W 2.67, M 2.2, L 2.13, C 2.55, V 1.98, F 3.47, S 2.57, R 1.93, K 1.71, A 3.79
I7: G 3.13, Q 2.25, A 3.29, K 2.89, P 3.35, L 2.37, W 1.81, S 3.22, Y 2.36, R 2.67, M 2.56, V 2.43, D 3.86, H 3.1, C 3.86, T 3.09, F 2.53, E 2.89
K6: S 2.77, D 4.14, V 2.95, H 3.21, T 2.88, M 3.21, G 2.96, L 2.66, I 2.66, P 2.67, N 2.7, R 2.74, C 2.98, Y 2.12, F 2.79, Q 3.76, E 3.67
K9: M 2.8, V 2, I 2.29, C 2.5, S 2.78, A 3.03, N 3.19, R 1.84, Y 2.28, E 3.42, G 2.5, F 2.72, T 2.42, D 3.61, L 3.07, Q 3.22, W 1.86
E10: M 2.42, A 1.55, Q 1.88, R 1.87, D 2.42, H 1.66, C 2.19, V 2.46, I 2.1, P 1.78, F 1.76, T 2.08, N 2.79, G 1.9, L 2.95, S 3.11, K 2.46, Y 2.08
E8: T 2.13, F 1.12, K 2.57, V 2.1, N 2.36, A 2.23, R 2.81, D 2.74, I 2.16, P 2.29, G 2.49, Y 2.32, H 1.96, M 1.75, W 2.03, Q 2.14, S 2.83, C 2.42, L 2.33
S4: M 2.1, Y 2.49, N 2.16, A 2.9, P 3.8, F 2.07, C 2.81, K 3.67, Q 3.14, D 3.95, V 3.28, R 2.57, T 2.74, W 1.49, E 3.05, G 2.39, H 2.62, L 2.67
